Test results published in patent US20160024487.

Experiments:
[1] = target: T1, Lys(Dnp)-ATNATFKPRIVGG-Lys(Abz)
T1 chain: KATNATFKPRIVGGK

[2] = target: T2, Lys(Dnp)-ATNATVSPRIVGG-Lys(Abz)
T2 chain: KATNATVSPRIVGGK

[3] = target: T3, Lys(Dnp)-ATNATMYPRIVGG-Lys(Abz)
T3 chain: KATNATMYPRIVGGK

[4] = target: T4, Lys(Dnp)-ATNATPKPRIVGG-Lys(Abz)
T4 chain: KATNATPKPRIVGGK

[5] = target: T5, Lys(Dnp)-ATNATWRPRIVGG-Lys(Abz)
T5 chain: KATNATWRPRIVGGK

[6] = target: T6, Lys(Dnp)-ATNATIIPRIVGG-Lys(Abz)
T6 chain: KATNATIIPRIVGGK

[7] = target: T7, Lys(Dnp)-ATNATMKPRIVGG-Lys(Abz)
T7 chain: KATNATMKPRIVGGK

[8] = target: T8, Lys(Dnp)-ATNATWSPRIVGG-Lys(Abz)
T8 chain: KATNATWSPRIVGGK

[9] = target: T9, Lys(Dnp)-ATNATLIPRIVGG-Lys(Abz)
T9 chain: KATNATLIPRIVGGK

[10] = target: T10, Lys(Dnp)-ATNATAIPRIVGG-Lys(Abz)
T10 chain: KATNATAIPRIVGGK

[11] = target: T11, Lys(Dnp)-ATNATLHPRIVGG-Lys(Abz)
T11 chain: KATNATLHPRIVGGK

[12] = target: T12, Lys(Dnp)-ATNATMTPRIVGG-Lys(Abz)
T12 chain: KATNATMTPRIVGGK

[13] = target: T13, Lys(Dnp)-ATNATWKPRIVGG-Lys(Abz)
T13 chain: KATNATWKPRIVGGK

[14] = target: T14, Lys(Dnp)-ATNATMFPRIVGG-Lys(Abz)
T14 chain: KATNATMFPRIVGGK

[15] = target: T15, Lys(Dnp)-ATNATFGPRIVGG-Lys(Abz)
T15 chain: KATNATFGPRIVGGK

[16] = target: T16, Lys(Dnp)-ATNATIKPRIVGG-Lys(Abz)
T16 chain: KATNATIKPRIVGGK

[17] = target: T17, Lys(Dnp)-ATNATFTPRIVGG-Lys(Abz)
T17 chain: KATNATFTPRIVGGK

[18] = target: T18, Lys(Dnp)-ATNATNIPRIVGG-Lys(Abz)
T18 chain: KATNATNIPRIVGGK

[19] = target: T19, Lys(Dnp)-ATNATQSPRIVGG-Lys(Abz)
T19 chain: KATNATQSPRIVGGK

[20] = target: T20, Lys(Dnp)-ATNATGTPRIVGG-Lys(Abz)
T20 chain: KATNATGTPRIVGGK

[21] = target: T21, Lys(Dnp)-ATNATNLPRIVGG-Lys(Abz)
T21 chain: KATNATNLPRIVGGK

[22] = target: T22, Lys(Dnp)-ATNATDMPRIVGG-Lys(Abz)
T22 chain: KATNATDMPRIVGGK

[23] = target: T23, Lys(Dnp)-ATNATNAPRIVGG-Lys(Abz)
T23 chain: KATNATNAPRIVGGK

[24] = target: T24, Lys(Dnp)-ATNATLGPRIVGG-Lys(Abz)
T24 chain: KATNATLGPRIVGGK

[25] = target: T25, Lys(Dnp)-ATNATLNPRIVGG-Lys(Abz)
T25 chain: KATNATLNPRIVGGK

[26] = target: T26, Lys(Dnp)-ATNATKQPRIVGG-Lys(Abz)
T26 chain: KATNATKQPRIVGGK

[27] = target: T27, Lys(Dnp)-ATNATGDPRIVGG-Lys(Abz)
T27 chain: KATNATGDPRIVGGK

[28] = target: T28, Lys(Dnp)-ATNATKGPRIVGG-Lys(Abz)
T28 chain: KATNATKGPRIVGGK

[29] = target: T29, Lys(Dnp)-ATNATEMPRIVGG-Lys(Abz)
T29 chain: KATNATEMPRIVGGK

[30] = target: T30, Lys(Dnp)-ATNATTYPRIVGG-Lys(Abz)
T30 chain: KATNATTYPRIVGGK

[31] = target: T31, Lys(Dnp)-ATNATTMPRIVGG-Lys(Abz)
T31 chain: KATNATTMPRIVGGK

[32] = target: T32, Lys(Dnp)-ATNATMLPRIVGG-Lys(Abz)
T32 chain: KATNATMLPRIVGGK

[33] = target: T33, Lys(Dnp)-ATNATELPRIVGG-Lys(Abz)
T33 chain: KATNATELPRIVGGK

[34] = target: T34, Lys(Dnp)-ATNATRWPRIVGG-Lys(Abz)
T34 chain: KATNATRWPRIVGGK

[35] = target: T35, Lys(Dnp)-ATNATTQPRIVGG-Lys(Abz)
T35 chain: KATNATTQPRIVGGK

[36] = target: T36, Lys(Dnp)-ATNATSNPRIVGG-Lys(Abz)
T36 chain: KATNATSNPRIVGGK

[37] = target: T37, Lys(Dnp)-ATNATMNPRIVGG-Lys(Abz)
T37 chain: KATNATMNPRIVGGK

[38] = target: T38, Lys(Dnp)-ATNATKAPRIVGG-Lys(Abz)
T38 chain: KATNATKAPRIVGGK

[39] = target: T39, Lys(Dnp)-ATNATPAPRIVGG-Lys(Abz)
T39 chain: KATNATPAPRIVGGK

[40] = target: T40, Lys(Dnp)-ATNATFIPRIVGG-Lys(Abz)
T40 chain: KATNATFIPRIVGGK

[41] = target: T41, Lys(Dnp)-ATNATDVPRIVGG-Lys(Abz)
T41 chain: KATNATDVPRIVGGK

B1: Human plasma purified Factor Xa (protein)
chain 1: ANSFLEEMKKGHLERECMEETCSYEEAREVFEDSDKTNEFWNKYKDGDQCETSPCQNQGKCKDGLGEYTCTCLEGFEGKNCELFTRKLCSLDNGDCDQFCHEEQNSVVCSCARGYTLADNGKACIPTGPYPCGKQTLER
chain 2: IVGGQECKDGECPWQALLINEENEGFCGGTILSEFYILTAAHCLYQAKRFKVRVGDRNTEQEEGGEAVHEVEVVIKHNRFTKETYDFDIAVLRLKTPITFRMNVAPACLPERDWAESTLMTQKTGIVSGFGRTHEKGRQSTRLKMLEVPYVDRNSCKLSSSFIITQNMFCAGYDTKQEDACQGDSGGPHVTRFKDTYFVTGIVSWGEGCARKGKYGIYTKVTAFLKWIDRSMKTRGLPKAKSHAPEVITSSPLK
[1]
  FXa kcat/KM: 55 M⁻¹ s⁻¹
[2]
  FXa kcat/KM: 88 M⁻¹ s⁻¹
[3]
  FXa kcat/KM: 110 M⁻¹ s⁻¹
[4]
  FXa kcat/KM: 74 M⁻¹ s⁻¹
[5]
  FXa kcat/KM: 800 M⁻¹ s⁻¹
[6]
  FXa kcat/KM: 490 M⁻¹ s⁻¹
[7]
  FXa kcat/KM: 72 M⁻¹ s⁻¹
[8]
  FXa kcat/KM: 52 M⁻¹ s⁻¹
[9]
  FXa kcat/KM: 420 M⁻¹ s⁻¹
[10]
  FXa kcat/KM: 220 M⁻¹ s⁻¹
[11]
  FXa kcat/KM: 540 M⁻¹ s⁻¹
[12]
  FXa kcat/KM: 97 M⁻¹ s⁻¹
[13]
  FXa kcat/KM: 41 M⁻¹ s⁻¹
[14]
  FXa kcat/KM: 55 M⁻¹ s⁻¹
[15]
  FXa kcat/KM: 100 M⁻¹ s⁻¹
[16]
  FXa kcat/KM: 120 M⁻¹ s⁻¹
[17]
  FXa kcat/KM: 49 M⁻¹ s⁻¹

B2: Human plasma purified Factor Xa (Molecular Innovations, Inc) (protein)
chain 1: B1 chain 1
chain 2: B1 chain 2
[18]
  FXa kcat/KM: 38 M⁻¹ s⁻¹
[19]
  FXa kcat/KM: 950 M⁻¹ s⁻¹
[20]
  FXa kcat/KM: 59 M⁻¹ s⁻¹
[21]
  FXa kcat/KM: 110 M⁻¹ s⁻¹
[22]
  FXa kcat/KM: 11 M⁻¹ s⁻¹
[23]
  FXa kcat/KM: 17 M⁻¹ s⁻¹
[24]
  FXa kcat/KM: 140 M⁻¹ s⁻¹
[25]
  FXa kcat/KM: 940 M⁻¹ s⁻¹
[26]
  FXa kcat/KM: 100 M⁻¹ s⁻¹
[27]
  FXa kcat/KM: 73 M⁻¹ s⁻¹
[28]
  FXa kcat/KM: 33 M⁻¹ s⁻¹
[29]
  FXa kcat/KM: 13 M⁻¹ s⁻¹
[30]
  FXa kcat/KM: 23 M⁻¹ s⁻¹
[31]
  FXa kcat/KM: 13 M⁻¹ s⁻¹
[32]
  FXa kcat/KM: 530 M⁻¹ s⁻¹
[33]
  FXa kcat/KM: 100 M⁻¹ s⁻¹
[34]
  FXa kcat/KM: 3000 M⁻¹ s⁻¹
[35]
  FXa kcat/KM: 17 M⁻¹ s⁻¹
[36]
  FXa kcat/KM: 24 M⁻¹ s⁻¹
[37]
  FXa kcat/KM: 430 M⁻¹ s⁻¹
[38]
  FXa kcat/KM: 52 M⁻¹ s⁻¹
[39]
  FXa kcat/KM: 170 M⁻¹ s⁻¹
[40]
  FXa kcat/KM: 150 M⁻¹ s⁻¹
[41]
  FXa kcat/KM: 15 M⁻¹ s⁻¹
